Values quoted from earlier work, collected in article PMC7821625.

Assays:
[1] = target: fibronectin (Homo sapiens) (UniProt P02751)
[2] = target: plasminogen (Homo sapiens) (UniProt P00747)
Sequence of UniProt P00747 (P00747 20-810): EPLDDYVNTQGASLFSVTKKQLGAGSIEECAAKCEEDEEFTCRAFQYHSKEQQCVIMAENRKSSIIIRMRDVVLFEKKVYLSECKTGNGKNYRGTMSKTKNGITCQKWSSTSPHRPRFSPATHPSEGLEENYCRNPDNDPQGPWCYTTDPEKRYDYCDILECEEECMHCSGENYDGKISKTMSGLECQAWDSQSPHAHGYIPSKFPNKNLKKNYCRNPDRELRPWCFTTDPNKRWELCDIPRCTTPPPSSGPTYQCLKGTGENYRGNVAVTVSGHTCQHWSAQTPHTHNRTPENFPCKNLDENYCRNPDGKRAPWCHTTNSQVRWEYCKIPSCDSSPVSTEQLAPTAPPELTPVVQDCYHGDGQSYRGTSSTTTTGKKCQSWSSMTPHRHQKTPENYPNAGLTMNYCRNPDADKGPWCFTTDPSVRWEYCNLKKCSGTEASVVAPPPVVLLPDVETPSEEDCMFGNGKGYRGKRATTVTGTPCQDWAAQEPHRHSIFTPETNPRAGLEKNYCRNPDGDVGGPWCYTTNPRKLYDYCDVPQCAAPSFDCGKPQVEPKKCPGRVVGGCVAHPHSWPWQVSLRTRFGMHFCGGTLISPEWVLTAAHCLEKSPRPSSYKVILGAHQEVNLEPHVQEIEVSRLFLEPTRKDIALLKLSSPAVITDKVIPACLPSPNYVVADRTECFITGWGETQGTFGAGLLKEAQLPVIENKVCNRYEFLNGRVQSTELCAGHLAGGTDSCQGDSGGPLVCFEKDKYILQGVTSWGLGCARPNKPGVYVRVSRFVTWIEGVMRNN

Sequence of UniProt P02751 (P02751 32-2477): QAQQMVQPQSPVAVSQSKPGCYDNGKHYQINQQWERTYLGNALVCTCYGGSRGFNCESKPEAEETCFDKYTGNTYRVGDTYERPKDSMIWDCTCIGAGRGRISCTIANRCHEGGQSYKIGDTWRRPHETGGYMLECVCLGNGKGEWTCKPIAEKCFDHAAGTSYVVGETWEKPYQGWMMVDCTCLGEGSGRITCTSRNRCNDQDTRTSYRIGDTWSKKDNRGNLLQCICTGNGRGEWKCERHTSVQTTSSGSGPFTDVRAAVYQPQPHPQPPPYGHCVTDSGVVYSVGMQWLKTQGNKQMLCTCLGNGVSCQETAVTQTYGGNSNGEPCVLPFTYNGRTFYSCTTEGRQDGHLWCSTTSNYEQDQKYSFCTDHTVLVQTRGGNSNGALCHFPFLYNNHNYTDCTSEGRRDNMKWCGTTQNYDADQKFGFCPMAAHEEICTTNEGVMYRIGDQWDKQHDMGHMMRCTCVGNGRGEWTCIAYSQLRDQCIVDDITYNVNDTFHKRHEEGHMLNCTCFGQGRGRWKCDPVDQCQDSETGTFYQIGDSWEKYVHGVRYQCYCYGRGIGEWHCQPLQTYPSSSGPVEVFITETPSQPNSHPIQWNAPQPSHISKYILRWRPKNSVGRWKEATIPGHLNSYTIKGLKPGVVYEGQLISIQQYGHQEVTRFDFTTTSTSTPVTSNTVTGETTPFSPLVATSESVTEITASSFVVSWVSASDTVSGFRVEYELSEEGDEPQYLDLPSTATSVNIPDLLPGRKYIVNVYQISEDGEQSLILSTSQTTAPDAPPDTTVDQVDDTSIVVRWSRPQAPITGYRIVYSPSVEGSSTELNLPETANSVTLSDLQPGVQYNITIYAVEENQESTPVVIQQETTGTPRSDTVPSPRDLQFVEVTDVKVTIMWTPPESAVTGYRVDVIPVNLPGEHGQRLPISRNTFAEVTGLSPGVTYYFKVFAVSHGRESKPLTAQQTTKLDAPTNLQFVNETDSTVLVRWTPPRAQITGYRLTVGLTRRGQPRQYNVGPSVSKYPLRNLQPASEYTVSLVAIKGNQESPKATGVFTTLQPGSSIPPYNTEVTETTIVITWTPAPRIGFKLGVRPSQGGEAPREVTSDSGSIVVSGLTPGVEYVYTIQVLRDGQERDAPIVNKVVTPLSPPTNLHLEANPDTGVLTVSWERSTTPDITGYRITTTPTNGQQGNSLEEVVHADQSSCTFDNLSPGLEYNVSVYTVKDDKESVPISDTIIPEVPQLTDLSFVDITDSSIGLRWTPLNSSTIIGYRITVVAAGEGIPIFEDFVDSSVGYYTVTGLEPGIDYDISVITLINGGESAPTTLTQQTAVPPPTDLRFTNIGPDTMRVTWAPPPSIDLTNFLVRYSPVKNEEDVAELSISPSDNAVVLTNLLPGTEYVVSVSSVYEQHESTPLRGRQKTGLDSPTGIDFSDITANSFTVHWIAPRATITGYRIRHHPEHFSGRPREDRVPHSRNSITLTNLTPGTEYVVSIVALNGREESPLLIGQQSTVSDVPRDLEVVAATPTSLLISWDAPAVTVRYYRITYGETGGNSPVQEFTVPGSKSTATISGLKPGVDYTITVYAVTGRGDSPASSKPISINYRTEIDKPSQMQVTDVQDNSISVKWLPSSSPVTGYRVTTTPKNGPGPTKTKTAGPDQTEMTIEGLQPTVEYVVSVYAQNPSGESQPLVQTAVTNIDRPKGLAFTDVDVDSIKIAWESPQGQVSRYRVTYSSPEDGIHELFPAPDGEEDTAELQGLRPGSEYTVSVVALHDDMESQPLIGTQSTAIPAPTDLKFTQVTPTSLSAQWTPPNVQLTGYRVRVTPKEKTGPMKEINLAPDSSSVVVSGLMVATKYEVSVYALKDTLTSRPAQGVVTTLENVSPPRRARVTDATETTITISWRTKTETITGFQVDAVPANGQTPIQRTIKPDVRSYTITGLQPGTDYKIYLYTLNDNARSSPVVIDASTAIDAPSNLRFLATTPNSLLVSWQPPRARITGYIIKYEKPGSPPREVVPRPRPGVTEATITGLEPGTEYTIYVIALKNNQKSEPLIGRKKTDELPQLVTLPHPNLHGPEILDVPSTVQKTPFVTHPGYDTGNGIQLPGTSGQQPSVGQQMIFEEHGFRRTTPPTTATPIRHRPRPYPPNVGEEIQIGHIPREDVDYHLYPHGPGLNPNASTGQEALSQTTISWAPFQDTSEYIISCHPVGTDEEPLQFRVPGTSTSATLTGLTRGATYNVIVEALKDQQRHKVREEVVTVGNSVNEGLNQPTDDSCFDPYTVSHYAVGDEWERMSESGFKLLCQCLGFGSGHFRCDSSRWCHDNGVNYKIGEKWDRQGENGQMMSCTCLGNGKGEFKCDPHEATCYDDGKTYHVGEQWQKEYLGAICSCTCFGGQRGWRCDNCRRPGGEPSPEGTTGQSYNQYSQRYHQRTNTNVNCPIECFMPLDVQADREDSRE

LigA LigA7'-13 (from UniProt Q72MA6)
Kd [1]: 126 nM | Kd [2]: 1200 nM
